Reference: the supplement of paper PMC7877785
± gives the uncertainty stated by the source.

Assay: self-splicing fitness, log relative to wild type (ln ratio); higher = more splicing; Tetrahymena group I intron in knt gene, E. coli kanamycin selection, DiMSum; sequences stand for … in CUCUCU…GGAGGGAAAAGUUAUCAGGCAUGCACCUGGUAGCUAGUCUUUAAACCAAUAGAUUGCAUCGGUUUAAAAGGCAAGACCGUCAAAUUGCGGGAAAGGGGUCAACAGCCGUUCAGUACCAAGUCUCAGGGGAAACUUUGAGAUGGCCUUGCAAAGGGUAUGGUAAUAAGCUGACGGACAUGGUCCUAACCACGCAGCCAAGUCCUAAGUCAACAGAUCUUCUGUUGAUAUGGAUGCAGUUCACAGACUAAAUGUCGGUCGGGGAAGAUGUAUUCUUCUCAUAAGAUAUAGUCGGACCUCUCCUUAAUGGGAGCUAGCGGAUGAAGUGAUGCAACACUGGAGCCGCUGGGAACUAAUUUGUAUGCGAAAGUAUAUUGAUUAGUUUUGGAGUACUCGUGGUCG
Summary of the method: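 Six replicate transformations of E. coli BL21(DE3) with a pET-22b(+) library were grown overnight at 37°C or 30°C. The library randomised all eight P1ex-region intron nucleotides, the intron lying in the knt kanamycin-resistance gene, and plates were LB agar with or without 25 μg/mL kanamycin plus 100 μg/mL carbenicillin, 50 μM IPTG and 0.2% rhamnose. Pooled colonies were amplicon-sequenced on an Illumina HiSeq 2500, and fitness is the DiMSum error-weighted combination of wild-type-normalised replicate fold changes, kanamycin versus none.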

Sequence | self-splicing fitness (ln) (30 °C) | self-splicing fitness (ln) (37 °C)
UUGGAGCAAUAUUACGUCUC | -2.96 ± 0.33 | -2.41 ± 0.33
CUUUAGCAAUAUUACGACCG | -0.732 ± 0.27 | 0.518 ± 0.26
UUGGAGCAAUAUUACGGGUC | -3.74 ± 0.34 | –
ACACAGCAAUAUUACGUACA | -1.05 ± 0.059 | -0.954 ± 0.068
GACCAGCAAUAUUACGUCUG | -2.93 ± 0.23 | -1.74 ± 0.21
GCAAAGCAAUAUUACGCAAA | -1.95 ± 0.1 | -1.58 ± 0.1
CAAUAGCAAUAUUACGUGUA | -3.98 ± 0.18 | -2.29 ± 0.11
GUCCAGCAAUAUUACGAACU | -1.37 ± 0.074 | -0.292 ± 0.081
UAGCAGCAAUAUUACGAUCG | -0.76 ± 0.093 | -0.0334 ± 0.12
GUCGAGCAAUAUUACGCAAC | -1.92 ± 0.33 | -0.123 ± 0.22
AGCAAGCAAUAUUACGUUAC | -3.47 ± 0.23 | -2.38 ± 0.21
GUUAAGCAAUAUUACGCUUC | – | -1.01 ± 0.49
GAAUAGCAAUAUUACGCUUG | -0.781 ± 0.11 | -0.818 ± 0.14
GUAAAGCAAUAUUACGUUCU | -0.888 ± 0.05 | -0.135 ± 0.071
CGGUAGCAAUAUUACGGUGC | -2.22 ± 0.27 | -2.48 ± 0.38
GUGAAGCAAUAUUACGAAAA | -1.44 ± 0.14 | -0.831 ± 0.18
GCGAAGCAAUAUUACGAGAG | -3.95 ± 0.34 | -1.91 ± 0.2
GCCUAGCAAUAUUACGACAU | -2.109 ± 0.015 | -1.02 ± 0.033
UGCAAGCAAUAUUACGGUAU | -3.81 ± 0.21 | -1.15 ± 0.14
AAUCAGCAAUAUUACGACCU | 0.207 ± 0.09 | 0.538 ± 0.096
CUUUAGCAAUAUUACGCAUG | -1.2 ± 0.11 | -1.96 ± 0.11
CACCAGCAAUAUUACGGGAC | -4.05 ± 0.13 | -2.05 ± 0.1
ACCAAGCAAUAUUACGCACC | -0.532 ± 0.078 | -0.199 ± 0.11
AGCGAGCAAUAUUACGGUUG | -2.69 ± 0.24 | -2.05 ± 0.21

Sequence | self-splicing fitness (ln) (30 °C) | self-splicing fitness (ln) (37 °C)
UAACAGCAAUAUUACGCUGA | -3.33 ± 0.2 | -1.61 ± 0.1
AUGUAGCAAUAUUACGCGGG | -4.31 ± 0.33 | -2.37 ± 0.2
CCUGAGCAAUAUUACGCGGA | -2.9 ± 0.25 | -1.17 ± 0.18
UGCUAGCAAUAUUACGCCCA | 0.275 ± 0.1 | 0.384 ± 0.13
AUUCAGCAAUAUUACGUUCU | -0.926 ± 0.074 | -0.163 ± 0.1
CGCAAGCAAUAUUACGAGAC | -3.4 ± 0.22 | -1.81 ± 0.21
AUCCAGCAAUAUUACGUAAA | -1.3 ± 0.064 | -0.843 ± 0.093
CGCAAGCAAUAUUACGUUCG | -1.86 ± 0.069 | -0.23 ± 0.082
UCUCAGCAAUAUUACGGUGU | -2.03 ± 0.086 | -1 ± 0.097
GCUUAGCAAUAUUACGACCA | -1.45 ± 0.2 | -1.29 ± 0.38
ACUUAGCAAUAUUACGCACA | -1.26 ± 0.12 | -1.02 ± 0.12
CGGCAGCAAUAUUACGGGAU | -3.24 ± 0.18 | -2.38 ± 0.23
AACUAGCAAUAUUACGUUAU | -2.63 ± 0.11 | -1.75 ± 0.12
CAUGAGCAAUAUUACGGGGU | -3.25 ± 0.3 | -3.38 ± 0.33
GGGCAGCAAUAUUACGAUGA | -1.36 ± 0.12 | -0.649 ± 0.11
UAUAAGCAAUAUUACGAUUA | -0.327 ± 0.073 | 0.291 ± 0.098
GCUGAGCAAUAUUACGGCGG | -1.79 ± 0.22 | –
GGCGAGCAAUAUUACGGUAU | -2.08 ± 0.13 | -1.04 ± 0.17
CUUAAGCAAUAUUACGGGAG | -3.42 ± 0.27 | -2.67 ± 0.27
GGUAAGCAAUAUUACGUCAU | -0.725 ± 0.14 | 0.713 ± 0.2
CUAUAGCAAUAUUACGACGA | -1.82 ± 0.19 | -0.725 ± 0.13
GUAGAGCAAUAUUACGCGUU | -0.368 ± 0.065 | -0.909 ± 0.11
GAUUAGCAAUAUUACGAUGA | -1.8 ± 0.13 | 0.00201 ± 0.11
CAGAAGCAAUAUUACGGCAU | -3.35 ± 0.19 | -1.95 ± 0.15
